Experiment [1] deals with gene sets characteristic of normal stem cells or cancer stem cells. The experiment can be described thus: Microarray gene set enrichment analysis of treated OMP-LU102 tumors. In kind it is in vivo, NOD-SCID mice. The settings on record: RNA from OMP-LU102 tumors after treatment, FIG. 11B. The method, then:
RNA was prepared from tumors from each of the four experimental groups following the treatment. Gene expression was characterized by microarray analysis.

Experiment [2] relates to RSPO3-induced β-catenin signaling. Nature of the experiment: TOPflash 6xTCF-luciferase reporter assay in HEK-293 cells with WNT3a and RSPO3. In kind it is cell-based, human. The method, then: HEK-293 cells were transfected with a 6×TCF-luciferase reporter vector (TOPflash, Millipore, Billerica, Mass.). After 24-48 hrs, the transfected HEK-293 cells were incubated with a combination of WNT3a (5 ng/ml) and human RSPO3 (10 ng/ml, R&D BioSystems, Minneapolis, Minn.) in the presence of anti-RSPO3 antibodies 131R002 and 131R003. Antibodies 131R002 and 131R003 were added to the cells in 4-fold serial dilutions from 20 μg/ml to 0.02 μg/ml. As controls, cells were incubated with a combination of WNT3a and RSPO3, WNT3a only, RSPO3 only, or with no addition. The cells were incubated for 16 hours and luciferase activity was measured using Steady-Glo® Luciferase Assay System according to the manufacturer's instructions (Promega, Madison, Wis.).
HEK-293 cells were transfected with a 6×TCF-luciferase reporter vector (TOPflash, Millipore, Billerica, Mass.). After 24-48 hrs, the transfected HEK-293 cells were incubated with a combination of WNT3a and human RSPO3 in the presence of anti-RSPO3 antibodies 131R003, 131R003 CDR1 variant and 131R003 CDR3 variant. 131R003, 131R003 CDR1 variant, and 131R003 CDR3 variant were added to the cells in 5-fold serial dilutions from 20 μg/ml to 0.006 μg/ml. As controls, cells were incubated with a combination of WNT3a and RSPO3, WNT3a only, RSPO3 only, a control antibody, or with no addition. The cells were incubated for 16 hours and luciferase activity was measured using Steady-Glo® Luciferase Assay System according to the manufacturer's instructions (Promega, Madison, Wis.).
HEK-293 cells were transfected with a 6×TCF-luciferase reporter vector (TOPflash, Millipore, Billerica, Mass.). After 24-48 hrs, the transfected HEK-293 cells were incubated with a combination of WNT3a conditioned medium (5 ng/ml) and human RSPO3 (10 ng/ml, R&D BioSystems) in the presence of anti-RSPO3 antibodies 131R002, 131R006B, or 131R007. Antibodies 131R002, 131R006 or 131R007 were added to the cells in 5-fold serial dilutions from 20 μg/ml to 0.0064 μg/ml. As controls, cells were incubated with WNT3a conditioned medium alone, a combination of WNT3a conditioned medium and human RSPO3, or with no addition to cells. The cells were incubated for 16 hours and luciferase activity was measured using Steady-Glo® Luciferase Assay System according to the manufacturer's instructions (Promega, Madison, Wis.).
HEK-293 cells were transfected with a 6×TCF-luciferase reporter vector (TOPflash, Millipore, Billerica, Mass.). […] The cells were incubated for 16 hours and luciferase activity was measured using Steady-Glo® Luciferase Assay System according to the manufacturer's instructions (Promega, Madison, Wis.).
In general terms: In a reporter assay the amount or activity of a reporter protein is the signal.

Experiment [3] deals with T1, human LGR5 (Homo sapiens, UniProt O75473).
T1 construct: ligating amino acids 22-564 of human LGR5 to an N-terminal FLAG tag; expressed in transfected cells; host or cells: HEK-293
T1 sequence (O75473 22-564): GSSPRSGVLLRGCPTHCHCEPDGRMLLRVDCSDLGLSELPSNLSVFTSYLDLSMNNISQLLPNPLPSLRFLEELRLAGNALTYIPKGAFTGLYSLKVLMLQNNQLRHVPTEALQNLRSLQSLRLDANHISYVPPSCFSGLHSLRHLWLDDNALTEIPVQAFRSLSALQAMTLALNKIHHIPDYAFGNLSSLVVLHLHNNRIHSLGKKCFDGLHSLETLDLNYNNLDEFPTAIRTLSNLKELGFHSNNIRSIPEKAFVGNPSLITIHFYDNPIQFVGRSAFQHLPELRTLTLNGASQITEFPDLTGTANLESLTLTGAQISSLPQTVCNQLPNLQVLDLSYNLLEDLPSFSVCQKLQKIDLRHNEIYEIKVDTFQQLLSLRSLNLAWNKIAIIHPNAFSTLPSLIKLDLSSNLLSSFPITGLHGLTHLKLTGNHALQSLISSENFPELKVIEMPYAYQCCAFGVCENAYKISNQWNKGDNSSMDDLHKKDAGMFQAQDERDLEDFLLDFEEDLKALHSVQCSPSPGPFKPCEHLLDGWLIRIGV
The experiment can be described thus: FACS binding of RSPO-Fc fusion proteins to LGR5 expressed on HEK-293 cells. Conditions: 10 μg/ml Fc fusion protein, FIG. 2. From the text:
A cell surface LGR5 protein was generated by ligating amino acids 22-564 of human LGR5 to an N-terminal FLAG tag and to the transmembrane domain of CD4 and a C-terminal GFP protein tag using standard recombinant DNA techniques (FLAG-LGR5-CD4TM-GFP). RSPO-Fc constructs were generated using standard recombinant DNA techniques. Specifically, full-length human RSPO1, RSPO2, RSPO3 and RSPO4 were ligated in-frame to a human Fc region and the recombinant RSPO-Fc proteins were expressed in insect cells using baculovirus. The fusion proteins were purified from the insect medium using protein A chromatography.
HEK-293 cells were transiently transfected with the FLAG-LGR5-CD4TM-GFP construct. After 48 hours, transfected cells were suspended in ice cold PBS containing 2% FBS and heparin and incubated on ice in the presence of 10 μg/ml RSPO1-Fc, RSPO2-Fc, RSPO3-Fc, RSPO4-Fc, or FZD8-Fc fusion proteins for 15 minutes. A second incubation with 100 μl PE-conjugated anti-human Fc secondary antibody was performed to detect cells bound by the Fc fusion proteins. Cells were incubated with an anti-FLAG antibody (Sigma-Aldrich, St. Louis, Mo.) as a positive control and with an anti-PE antibody as a negative control. The cells were analyzed on a FACSCalibur instrument (BD Biosciences, San Jose, Calif.) and the data was processed using FlowJo software.

This is an account of results in patent US9598497B2, “RSPO3 binding agents and uses thereof” (OncoMed Pharmaceuticals, Inc., priority 2012, dated 2017).

`N.N.O=C([O-])C1(C(=O)[O-])CCC1.[Pt+2]` [carboplatin, reference compound]: the “expression of gene sets characteristic of normal stem cells or cancer stem cells” value in experiment [1] is “did not have this effect on gene expression”.

B1: 131R003: anti-RSPO3 antibody from a mammalian cell antibody library; heavy chain variable region SEQ ID NO:16, light chain variable region SEQ ID NO:17 (antibody, V domains shown)
VH: QVQLKQSGPELVKPGASVKISCKASGYTFTDYSIHWVKQNHGKSLDWIGYIYPSNGDSGYNQKFKNRATLTVDTSYSTAYLEVRRLTFEDSAVYYCATYFANYFDYWGQGTTLTVSSAST
VL: DIVLTQSPASLAVSLGQRATISCKASQSVDYDGDSYMNWYQQKPGQPPKLLIYAASNLESGIPARFSGSGSGTDFTLNIHPVEEEDAATYYCQQSNEDPLTFGAGTKLELKR
modifications: 131R003 Heavy chain variable region; 131R002/131R003 Light chain variable region
Turning to B1, the “RSPO3-induced β-catenin signaling” value in experiment [2] (WNT3a 5 ng/ml + RSPO3 10 ng/ml, antibody 20 to 0.02 μg/ml, FIG. 3) was “reduced RSPO3-induced β-catenin signaling in a dose-dependent manner”.

B2: h131R010: humanized 131R003 variant, IgG1; heavy chain variable region SEQ ID NO:44, light chain variable region SEQ ID NO:86; ATCC PTA-120420 and PTA-120421 (antibody, V domains shown)
VH: QVQLVQSGAEVKKPGASVKVSCKASGYTFTDYSIHWVRQAPGQGLEWIGYIYPSNGDSGYNQKFKNRVTMTRDTSTSTAYMELSRLRSEDTAVYYCATYFANNFDYWGQGTTLTVSS
VL: DIQMTQSPSSLSASVGDRVTITCKASQSVDYDGDSYMNWYQQKPGKAPKLLIYAASNLESGVPSRFSGSGSGTDFTLTISPVQAEDFATYYCQQSNEDPLTFGAGTKLELKR
modifications: Humanized 131R005/131R007/131R008/ 131R010/131R011 Heavy chain variable region; Humanized 131R010/131R011 Light chain variable region
notes: humanized 131R003 variant, IgG1; ATCC PTA-120420 and PTA-120421
Regarding B2, in experiment [2] (WNT3a conditioned medium 5 ng/ml + human RSPO3 2 ng/ml, antibody 20 to 0.0064 μg/ml, FIG. 13), the “WNT3a/RSPO3-induced β-catenin signaling” value was “reduced WNT3a/RSPO3-induced β-catenin signaling in a dose-dependent manner and to a similar extent as h131R007”.

B3: RSPO3: full-length human RSPO3 ligated in-frame to a human Fc region (protein)
chain: QNASRGRRQRRMHPNVSQGCQGGCATCSDYNGCLSCKPRLFFALERIGMKQIGVCLSSCPSGYYGTRYPDINKCTKCKADCDTCFNKNFCTKCKSGFYLHLGKCLDNCPEGLEANNHTMECVSIVHCEVSEWNPWSPCTKKGKTCGFKRGTETRVREIIQHPSAKGNLCPPTNETRKCTVQRKKCQKGERGKKGRERKRKKPNKGESKEAIPDSKSLESSKEIPEQRENKQQQKKRKVQDKQKSVSVSTVH
Take B3: the “binding to LGR5 expressed on the surface of HEK-293 cells” value (shortened to “binding to LGR5 expressed”) in experiment [3] is “bound to LGR5”.

B4: RSPO1: full-length human RSPO1 ligated in-frame to a human Fc region (protein)
chain: SRGIKGKRQRRISAEGSQACAKGCELCSEVNGCLKCSPKLFILLERNDIRQVGVCLPSCPPGYFDARNPDMNKCIKCKIEHCEACFSHNFCTKCKEGLYLHKGRCYPACPEGSSAANGTMECSSPAQCEMSEWSPWGPCSKKQQLCGFRRGSEERTRRVLHAPVGDHAACSDTKETRRCTVRRVPCPEGQKRRKGGQGRRENANRNLARKESKEAGAGSRRRKGQQQQQQQGTVGPLTSAGPA
modifications: left off: a dimerising Fc or GST
notes: full-length human RSPO1 ligated in-frame to a human Fc region
As for B4, in experiment [3], the “binding to LGR5 expressed” value is reported as “bound to LGR5”.

B5: RSPO2: full-length human RSPO2 ligated in-frame to a human Fc region (protein)
chain: QGNRWRRSKRASYVSNPICKGCLSCSKDNGCSRCQQKLFFFLRREGMRQYGECLHSCPSGYYGHRAPDMNRCARCRIENCDSCFSKDFCTKCKVGFYLHRGRCFDECPDGFAPLEETMECVEGCEVGHWSEWGTCSRNNRTCGFKWGLETRTRQIVKKPVKDTIPCPTIAESRRCKMTMRHCPGGKRTPKAKEKRNKKKKRKLIERAQEQHSVFLATDRANQ
modifications: left off: a dimerising Fc or GST
notes: full-length human RSPO2 ligated in-frame to a human Fc region
B5: the “binding to LGR5 expressed” value in experiment [3] is on record as “bound to LGR5”.
